The source of these data is patent publication US20250223369A1 (WISTAR INSTITUTE OF ANATOMY AND BIOLOGY, published 2025).

Assay [1] has as its target T1, recombinant human Siglec-7 protein (human, UniProt Q9Y286 19-353, limits assumed). The assay can be described thus: SPR, DB7.2 and recombinant human Siglec-7 protein. In general terms: Surface plasmon resonance follows binding to a sensor surface in real time, without labels.
Another assay deals with T2, Siglec 9 on 293T cells (UniProt Q9Y336 18-463, limits assumed).
T2 construct: whole, on cells
The assay can be described thus: flow cytometry on Siglec 9 overexpressing HEK293T cells. An excerpt:
BD LSRII flow cytometer was used for staining of cells. BD FACS Aria cell sorter (BD Biosciences) was used for the sorting of Siglec 7/FSHR stably expressing cells. Anti-human antibodies used were directly fluorochrome conjugated. […] For the non-conjugated primary antibodies, PE-secondary anti-human (H+L) (Invitrogen), PE/AF647—secondary anti-human F(ab′)₂ (Jackson ImmunoResearch Laboratories Inc) and APC—secondary anti-mouse IgG (Poly4053, BioLegend) were used. Live/Dead Violet viability kit (Invitrogen) was used to exclude dead cells from analysis.
Three mAbs targeting Siglec 7 were sequenced and studied in more detail. […] (FIG. 10B). […] Cells were labeled with DAPI (nuclei), GFP (Siglec 7) and Texas Red (Anti-Siglec 7).
(A flow cytometer gives signals particle by particle.)

Assay [2] has as its target T1, recombinant human Siglec-7 protein. The assay can be described thus: SPR, titration of anti-Siglec-7 on recombinant human Siglec-7 protein.
Assay [3] addresses T3, human Siglec 7 on cells (human, UniProt Q9Y286 19-467). Nature of the assay: cell-based or functional assay.
Assay [4] deals with T3, human Siglec 7 on cells. Nature of the assay: flow cytometry of human NK cells with sera of DMAb-electroporated mice, anti-human IgG.

T1 sequence (Q9Y286 19-353 limits assumed): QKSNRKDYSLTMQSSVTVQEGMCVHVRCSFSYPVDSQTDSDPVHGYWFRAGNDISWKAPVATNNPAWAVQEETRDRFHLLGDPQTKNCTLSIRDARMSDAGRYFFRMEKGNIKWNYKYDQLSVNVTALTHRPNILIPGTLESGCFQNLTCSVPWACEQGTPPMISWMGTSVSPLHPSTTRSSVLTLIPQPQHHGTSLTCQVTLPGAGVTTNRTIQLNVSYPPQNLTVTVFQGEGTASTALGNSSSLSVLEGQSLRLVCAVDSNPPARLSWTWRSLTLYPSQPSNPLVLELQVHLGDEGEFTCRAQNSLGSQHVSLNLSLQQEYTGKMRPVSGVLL
T2 sequence (Q9Y336 18-463 limits assumed): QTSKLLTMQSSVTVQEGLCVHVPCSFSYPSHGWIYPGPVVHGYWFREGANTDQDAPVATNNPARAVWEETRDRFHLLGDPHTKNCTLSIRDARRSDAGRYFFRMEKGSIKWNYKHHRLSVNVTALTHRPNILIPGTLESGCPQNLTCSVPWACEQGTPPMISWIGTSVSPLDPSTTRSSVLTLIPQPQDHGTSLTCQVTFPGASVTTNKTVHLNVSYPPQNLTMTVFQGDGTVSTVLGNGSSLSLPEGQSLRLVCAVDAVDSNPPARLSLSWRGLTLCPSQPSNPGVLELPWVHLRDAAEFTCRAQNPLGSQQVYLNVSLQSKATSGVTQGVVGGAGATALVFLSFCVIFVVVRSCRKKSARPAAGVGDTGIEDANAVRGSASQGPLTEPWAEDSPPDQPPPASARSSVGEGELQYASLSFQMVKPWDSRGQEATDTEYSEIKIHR
T3 sequence (Q9Y286 19-467): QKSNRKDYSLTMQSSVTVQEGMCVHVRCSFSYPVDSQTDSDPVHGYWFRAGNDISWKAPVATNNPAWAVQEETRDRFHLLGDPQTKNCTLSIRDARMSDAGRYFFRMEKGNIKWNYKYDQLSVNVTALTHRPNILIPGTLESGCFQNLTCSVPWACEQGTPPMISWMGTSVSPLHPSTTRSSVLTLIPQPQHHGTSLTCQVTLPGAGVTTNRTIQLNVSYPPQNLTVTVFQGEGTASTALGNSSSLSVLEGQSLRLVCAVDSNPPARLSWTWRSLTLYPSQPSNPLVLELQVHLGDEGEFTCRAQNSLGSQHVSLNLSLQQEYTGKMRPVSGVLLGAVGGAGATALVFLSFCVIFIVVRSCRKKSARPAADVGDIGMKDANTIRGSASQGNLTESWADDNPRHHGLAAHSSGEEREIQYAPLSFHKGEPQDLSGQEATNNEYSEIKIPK

B1: DB-S7-2 anti-Siglec 7 antibody (antibody, V domains shown)
VH: QVQLVESGGGVVQPGRSLRLSCAASGFTFRTDAMHWVRQAPGKGLEWVAVIWYDGSIKYHADSVKGRFTISRDNSKNTLYLEMNSLRAEDTAVYYCARDRSNSLDHWGQGILVSVSS
VL: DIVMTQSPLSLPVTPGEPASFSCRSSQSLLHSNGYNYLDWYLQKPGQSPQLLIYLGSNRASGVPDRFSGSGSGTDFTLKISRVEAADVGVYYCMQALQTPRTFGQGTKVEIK
notes: Raised in H2L2 mice (hybridoma clone in the first screens), then expressed as human IgG1 HC and LC from pVax1 in Expi293F cells or in mice (DMAb); also called DB7.2; DB-S7-2 DMAb
Broadly, the koff is a measure of how fast the partners let go of each other. A word on the kon: it is the second-order rate constant of association. The term Kd denotes the concentration at which binding is half-saturated. Turning to B1, in assay [1], the off-rate (koff) was found to be 3.6e-05 s⁻¹, the association rate constant (kon) amounted to 830000 M⁻¹ s⁻¹ and the t1/2 amounted to 5.33 h. Besides, the binding result with Siglec 9 on 293T cells is reported as “no binding”. For the same molecule, in assay [2], the dissociation constant (Kd) amounted to 0.044 nM. In the assay with human Siglec 7 on cells [3], the “killing of OVISE cells with human PBMCs (cell index vs dose), IC50” value is 82.7 nM and the “killing of PEO4 cells with human PBMCs (xCELLigence), EC50” value is 68.9 nM.

B2: DB-S7-1 anti-Siglec 7 antibody (antibody, V domains shown)
VH: B1 VH
VL: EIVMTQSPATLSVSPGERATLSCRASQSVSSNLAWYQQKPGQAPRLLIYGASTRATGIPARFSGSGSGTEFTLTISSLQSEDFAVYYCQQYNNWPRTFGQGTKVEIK
notes: Raised in H2L2 mice (hybridoma clone in the first screens), then expressed as human IgG1 HC and LC from pVax1 in Expi293F cells or in mice (DMAb); also called DB7.1; DB-S7-1 DMAb
For B2, the binding result with human Siglec 7 on cells [4] is reported as “binds”; with Siglec 9 on 293T cells, “no binding”.

B3: DB7.2_TM Mod (antibody, V domains shown)
VH: B1 VH
VL: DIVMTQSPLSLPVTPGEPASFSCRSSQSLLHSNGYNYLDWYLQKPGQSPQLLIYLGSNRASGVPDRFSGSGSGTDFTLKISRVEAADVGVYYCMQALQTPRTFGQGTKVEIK
On to B3, for which, in the assay with human Siglec 7 on cells [3], the “killing of OVISE cells with human PBMCs (cell index vs dose), IC50” value came to 192 nM.

B4: DB-S7-7 anti-Siglec 7 antibody (antibody, V domains shown)
VH: B1 VH
VL: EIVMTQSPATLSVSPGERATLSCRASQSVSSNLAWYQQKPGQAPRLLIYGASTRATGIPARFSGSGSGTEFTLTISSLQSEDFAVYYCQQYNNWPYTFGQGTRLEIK
notes: Raised in H2L2 mice (hybridoma clone in the first screens), then expressed as human IgG1 HC and LC from pVax1 in Expi293F cells or in mice (DMAb); also called DB7.7; DB-S7-7 DMAb
Regarding B4, in the assay with Siglec 9 on 293T cells, the binding result is given as “no binding”.
